Experimental data taken from article PMC1283526.

Target: T1, GST-ELAV (UniProt P16914 76-483)
T1 sequence: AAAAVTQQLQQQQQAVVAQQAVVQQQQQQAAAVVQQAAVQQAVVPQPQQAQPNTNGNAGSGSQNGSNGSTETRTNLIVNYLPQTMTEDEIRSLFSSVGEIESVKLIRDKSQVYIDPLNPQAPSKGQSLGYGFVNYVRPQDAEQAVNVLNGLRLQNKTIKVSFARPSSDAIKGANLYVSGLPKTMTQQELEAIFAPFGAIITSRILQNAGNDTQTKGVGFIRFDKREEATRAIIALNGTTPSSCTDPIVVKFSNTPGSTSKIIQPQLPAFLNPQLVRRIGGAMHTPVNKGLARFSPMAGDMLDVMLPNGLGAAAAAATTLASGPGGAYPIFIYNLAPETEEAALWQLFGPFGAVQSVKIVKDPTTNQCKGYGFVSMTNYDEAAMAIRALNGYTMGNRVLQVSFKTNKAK
Assay: competition

AUUUUUAUUUGUUAUUUUUU (ssRNA) [SSE 20mer]: binds.
